Test [1] deals with T1, Human PD-1 fusion protein (human, UniProt Q15116 25-167).
T1 construct: also called Soluble PD-1 fusion protein; human PD-1/IgG chimera; not shown: fusion partner, called IgG in 'PD-1/IgG chimera'
Nature of the test: scFv; inhibition of biotinylated human PD-L1 fusion binding to plate-bound human PD-1 fusion. On the procedure:
ScFv production was induced by addition of 1 mM IPTG to exponentially growing cultures and incubation overnight at 30° C. Crude scFv-containing periplasmic extracts were obtained by subjecting the bacterial pellets from the overnight induction to osmotic shock. Pellets were resuspended in 20% (w/v) sucrose, 50 mM Tris-HCl, pH 7.5, 1 mM EDTA and cooled on ice for 30 minutes. Cellular debris was removed by centrifugation, and the scFv was purified by chromatography and buffer-exchanged into PBS. Purified scFv's (PD1-17, PD1-28, PD1-33, and PD1-35) were tested for the ability to inhibit the binding of biotinylated human PD-L1 fusion protein to human PD-1 fusion protein immobilized on plastic in a 96 well microtiter plate assay. Binding of biotinylated PD-L1 fusion protein was detected with AMDEX-alkaline phosphatase, and the signal generated was measured by reading the absorbance at 405 nm using a microtiter plate reader. Data was expressed as a percentage of the total binding and a titration of scFv concentrations was tested to establish clone potency as calculated IC₅₀ values.

Test [2] concerns the target T1, Human PD-1 fusion protein. Put plainly: IgG; inhibition of biotinylated human PD-L1 fusion binding to plate-bound human PD-1 fusion. On the procedure:
Crude scFv-containing periplasmic extracts were obtained by subjecting the bacterial pellets from the overnight induction to osmotic shock. Pellets were resuspended in 20% (w/v) sucrose, 50 mM Tris-HCl, pH 7.5, 1 mM EDTA and cooled on ice for 30 minutes. Cellular debris was removed by centrifugation, and the scFv was purified by chromatography and buffer-exchanged into PBS. […] Binding of biotinylated PD-L1 fusion protein was detected with AMDEX-alkaline phosphatase, and the signal generated was measured by reading the absorbance at 405 nm using a microtiter plate reader. […]

In test [3] the target is T2, Murine PD-1 on cells (mouse, UniProt Q02242 25-288).
T2 construct: also called Cells expressing murine PD-1
T2 sequence: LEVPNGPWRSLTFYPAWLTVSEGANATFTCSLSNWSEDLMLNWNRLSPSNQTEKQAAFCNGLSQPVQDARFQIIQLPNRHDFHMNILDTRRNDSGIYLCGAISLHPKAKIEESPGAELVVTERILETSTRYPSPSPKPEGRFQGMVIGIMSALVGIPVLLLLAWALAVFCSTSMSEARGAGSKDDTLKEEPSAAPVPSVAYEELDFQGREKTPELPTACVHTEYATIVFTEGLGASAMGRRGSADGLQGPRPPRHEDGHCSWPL
Put plainly: scFv; inhibition of biotinylated murine PD-L1 fusion binding to cells expressing murine PD-1. On the procedure: (§1) PD1-F2 scFv was produced and purified as described above. Cells expressing murine PD-1 were added at 10⁵ cells/well in a final volume of 100 μl to a poly-D-lysine-coated 96 well microtiter plate. Cells were centrifuged and washed twice in PBS, then blocked with 300 μl […] in PBS for 1 hour at room temperature. Blocked cells were washed three times in PBST, prior to addition of 25 μl/well of assay buffer (0.05% BSA, 0.05% Tween 20 in Dulbecco's PBS) or sample, followed by 25 μl of biotinylated murine PD-L1 fusion protein at 300 ng/ml. Binding of biotinylated PD-L1 fusion protein was detected with Amdex alkaline phosphatase and signals read as described above.

The target of test [4] is T3, Murine PD-1 fusion protein (mouse, UniProt Q02242 25-167).
T3 construct: also called mouse PD-1 fusion protein; not shown: fusion partner not described
T3 sequence: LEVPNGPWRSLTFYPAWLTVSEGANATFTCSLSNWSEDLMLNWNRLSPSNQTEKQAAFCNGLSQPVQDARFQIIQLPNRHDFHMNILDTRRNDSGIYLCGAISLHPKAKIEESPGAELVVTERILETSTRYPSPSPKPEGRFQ
Nature of the test: SPR (BIAcore 3000), murine PD-1 fusion immobilized on CM5 chip, antibody 7.81 to 125 nM in flow. On the procedure:
The binding affinity of the anti-mouse PD1 antibody PD1-F2 was determined with a Surface Plasmon Resonance (SPR) system (BIAcore 3000) (Biacore, Piscataway, N.J.) using murine PD-1 fusion immobilized on a CM5 sensor chip. The concentration of PD1-F2 in the flow cell ranged from 7.81 to 125 nM, while the concentration of the anti-mouse PD1 antibody J43 (eBioscience, San Diego, Calif.) ranged from 25 nM to 500 nM.
In general terms: SPR reads the build-up and loss of mass on a sensor chip optically.

Test [5] has as its target T2, Murine PD-1 on cells. Nature of the test: IgG; inhibition of biotinylated murine PD-L1 fusion binding to cells expressing murine PD-1. On the procedure:
as §1, with “Cells” for “PD1-F2 scFv was produced and purified as described above. Cells”

T1 sequence (Q15116 other isoform, or with tags, fused parts or gaps): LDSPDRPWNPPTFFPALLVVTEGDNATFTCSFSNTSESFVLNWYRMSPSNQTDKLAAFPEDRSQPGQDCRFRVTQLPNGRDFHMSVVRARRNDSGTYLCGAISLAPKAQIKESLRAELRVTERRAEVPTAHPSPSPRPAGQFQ

B1: PD1-33 scFv (scFv, V domains shown)
VH: QVQLVQSGAEVKKPGASVRVSCKASGYTLTSYYIHWVRQAPGQGLEWMGIINPRGATISYAQKFQGRVTMTRDTSTSTVYMELRNLKSEDTALYYCATAGIYGFDFDYWGRGTLVTVSS
VL: QSALTQPASVSGSPGQSITISCTGTSNDVGGYNYVSWYQHHPGKAPKLIIYDVTNRPSGVSDRFSGSKSGNTASLTISGLLAEDEGDYYCSSYTIVTNFEVLFGGGTKLTV
Regarding B1, the IC50 in test [1] came out at 74 nM.

B2: PD1-33 IgG (antibody, V domains shown)
VH: B1 VH
VL: B1 VL
In test [2], B2 gave an IC50 of 1.8 nM.

B3: PD1-35 IgG (antibody, V domains shown)
VH: QVQLQESGPGLVKPSQTLSLTCTVSGGSISSGAYYWSWIRQHPGKGLEWIGYIYYNGNTYYNPSLRSLVTISVDASKNQFSLKLSSVTAADTAVYYCARASDYVWGGYRYMDAFDIWGRGTLITVSS
VL: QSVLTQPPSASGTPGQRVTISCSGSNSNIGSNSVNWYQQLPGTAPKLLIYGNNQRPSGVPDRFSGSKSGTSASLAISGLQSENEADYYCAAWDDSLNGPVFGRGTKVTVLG
notes: also called PD-35
B3 displayed a half-maximal inhibitory concentration (IC50) in test [2] of 2.3 nM.

B4: PD1-17 scFv (scFv, V domains shown)
VH: QVQLQESGPGVVKPSGTLSLTCAISGGSIGSGGSIRSTRWWSWVRQSPGKGLEWIGEIYHSGSTNYNPSLKSRVTISLDKSRNHFSLRLNSVTAADTAVYYCARQDYGDSGDWYFDLWGKGTMVTVSS
VL: NFMLTQPHSVSESPGKTVTISCTRSSGSIASNSVQWYQQRPGSSPTTVIYEDNQRPSGVPDRFSGSIDSSSNSASLTVSGLKTEDEADYYCQSSDSSAVVFGSGTKLTVL
notes: not shown: scFv linker, order of the domains and vector tags (pCANTAB6 phagemid library)
On to B4, for which, in test [1], the IC50 stood at 726 nM.

B5: PD1-17 IgG (antibody, V domains shown)
VH: B4 VH
VL: B4 VL
notes: also called anti-PD-1 antibody PD1-17
Turning to B5, the IC50 in test [2] turned out to be 2.5 nM.

B6: PD1-28 IgG (antibody, V domains shown)
VH: EVQLVQSGAEVKKPGASVKVSCKASGYRFTSYGISWVRQAPGQGLEWMGWISAYNGNTNYAQKLQGRVTMTTDTSTNTAYMELRSLRSDDTAVYYCARDADYSSGSGYWGQGTLVTVSS
VL: SYELTQPPSVSVSPGQTARITCSGDALPKQYAYWYQQKPGQAPVMVIYKDTERPSGIPERFSGSSSGTKVTLTISGVQAEDEADYYCQSADNSITYRVFGGGTKVTVL
In turn, B6 yielded an IC50 in test [2] of 1.4 nM.

B7: PD1-28 scFv (scFv, V domains shown)
VH: B6 VH
VL: B6 VL
notes: as for B4
In the case of B7, the IC50 in test [1] stood at 560 nM.

B8: PD1-F2 scFv (scFv, V domains shown)
VH: EVQLVQSGGGVVQPGRSLRLSCAASGFTFSSYWMSWVRQAPGKGLEWVSAISGSGGSTYYADSVKGRFTISRDNSKNTLYLQMNSLRAEDTAVYYCAKENWGSYFDLWGQGTTVTVSS
VL: DIVMTQSPSTLSASVGDRVTITCRASQGISSWLAWYQQKPGRAPKVLIYKASTLESGVPSRFSGSGSGTDFTLTISSLQPEDFATYYCQQSYSTPWTFGQGTKLEIK
In the test with Murine PD-1 on cells [3], B8 registered an IC50 of 28 nM.

B9: PD1-F2 IgG (antibody, V domains shown)
VH: B8 VH
VL: DIVMTQSPSTLSASVGDRVTITCRASQGISSWLAWYQQKPGRAPKVLIYKASTLESGVPSRFSGSGSGTDFTLTISSLQPEDFATYYCQQSYSTPWTFGQGTKLEIKR
notes: also called anti-mouse PD1 antibody PD1-F2
In test [4], B9 yielded a Ka of 1.5e+08 M⁻¹ and a dissociation constant (Kd) of 6.7 nM. In the test with Murine PD-1 on cells [5], this molecule gave an IC50 of 1 nM.

By IC50 is commonly meant the concentration that inhibits the measured activity by half. By Kd is commonly meant the free concentration of one partner at which half of the binding sites on the other are occupied at equilibrium, for simple one-to-one binding.

The values are drawn from US20040213795A1 (Pfizer, published 2004).
